Key:
[1] = biological target: T1, dimeric HER2 (extracellular domain of HER2 with Fc tag, R&D) (human, UniProt P04626 23-652); assay: ELISA, dimeric HER2 (ECD Fc-tag) coated at 2 µg/ml, biotinylated H561-4, Strep-HRP
T1 construct: Bought protein; also called HER2 ECD Fc-tag; Fc-tagged HER2 ECD; not shown: Fc tag of the bought R&D protein
Method: (§1) Monomeric HER2 (HER2 ECD untagged) and dimeric HER2 (HER2 ECD Fc-tag) were immobilised at 2 μg/ml on a 96-well maxisorp plate (Nunc) in PBS overnight at 4° C. The plates were blocked for 1 hour with 200 μl of 5% BSA in PBS. […] The dilution series was removed and the plate was washed 3× with phosphate buffered saline with Tween 20 (PBST).
(§2) A 1:5000 dilution of Strep-HRP (Abcam ab) was prepared in 5% BSA and 100 μl was added to the plate and incubated for 1 hour at RT. The plate was then washed 3× with PBST before 100 μl of TMB (Roche) were added, and the plate incubated at RT for 2 mins. The reaction was stopped using 100 μl of 2 M H₂SO₄ and the plate was read at 450 nm.

[2] = biological target: T2, monomeric HER2 (extracellular domain of HER2 without tag) (human, UniProt P04626 23-652); assay: ELISA, monomeric HER2 (ECD untagged) coated at 2 µg/ml, biotinylated H561-4, Strep-HRP; monomeric HER2, not dimeric HER2
T2 construct: also called HER2 ECD untagged; untagged HER2 ECD, in house
Method: as §1, §2

- EC50 [1]: 1.7 nM
- EC50 [2]: 20.6 nM
B1: antigen-binding Fc fragment H561-4 (designed binder)
chain: TCPPCPAPELLGGPSVFLFPPKPKDTLMISRTPEVTCVVVDVSHEDPEVKFNWYVDGVEVHNAKTKPREEQYNSTYRVVSVLTVLHQDWLNGKEYKCKVSNKALPAPIEKTISKAKGQPREPQVYTLPPSRDEFFTYWVSLTCLVKGFYPSDIAVEWESNGQPENNYKTTPPVLDSDGSFFLYSKLTVDRRRWTAGNVFSCSVMHEALHNHYTQKSLSLSPGK
notes: C-terminal K or GK may be clipped in manufacture; also called FS102; Fcab

— US20160289336A1 (F STAR BIOTECHNOLOGY, published 2016)
